Here are results for two molecules from patent US8389575B2, “Control of enzymatic peracid generation” (E.I. du Pont de Nemours and Company, priority 2008, dated 2013).

A short description of data set [1]: Peracetic acid production by perhydrolases, control by initial reaction pH in sodium citrate buffer. The format is biochemical. The note with it: triacetin 100 mM, 0.050 mg/mL extract total protein, 25° C. The protocol: A cell extract of a transformant expressing perhydrolase from Bacillus pumilus PS213 (KLP18/pSW195), Thermotoga maritima MSB8 (KLP18/pSW207), Thermotoga neapolitana (KLP18/pSW196), or Bacillus subtilis ATCC® 31954™ (KLP18/pSW194) was prepared by passing a suspension of cell paste (20 wt % wet cell weight) in 0.05 M potassium phosphate buffer (pH 7.0) containing dithiothreitol (1 mM) twice through a French press having a working pressure of 16,000 psi (˜110 MPa). The crude extract was then centrifuged at 20,000×g to remove cellular debris, producing a clarified cell extract that was assayed for total soluble protein (Bicinchoninic Acid Kit for Protein Determination, Sigma Aldrich catalog #BCA1-KT). The supernatant was frozen in dry ice and stored at −80° C.
Reactions (10 mL total volume) containing triacetin, hydrogen peroxide and centrifuged cell extract supernatant (prepared as described above) in 50 mM sodium citrate buffer (initial pH 7.2 or 6.5) were run at 25° C. A control reaction for each reaction condition was run to determine the concentration of peracetic acid produced by chemical perhydrolysis of triacetin by hydrogen peroxide in the absence of added extract protein (data not shown). Determination of the concentration of peracetic acid in the reaction mixtures was performed according to the method described by Karst et al., supra.

Data set [2] can be described thus: Dependence of specific activity on pH for hydrolysis of triacetin by CE-7 esterases/perhydrolases (cell extracts of E. coli KLP18 transformants). It counts as biochemical. The note with it: 200 mM triacetin, 25° C. The procedure:
A cell extract of an E. coli transformant expressing perhydrolase from Thermotoga neapolitana (KLP18/pSW196), Thermotoga maritima MSB8 (KLP18/pSW207), Bacillus pumilus PS213 (KLP1S/pSW195), Bacillus subtilis BE1010 (KLP18/pSW189), Bacillus subtilis ATCC® 31954™ (KLP18/pSW194), or Bacillus licheniformis ATCC® 14580™ (KLP18/pSW191) was prepared by passing a suspension of cell paste (20 wt % wet cell weight) in 0.05 M potassium phosphate buffer (pH 7.0) containing dithiothreitol (1 mM) twice through a French press having a working pressure of 16,000 psi (˜110 MPa). The crude extract was then centrifuged at 20,000×g to remove cellular debris, producing a clarified cell extract that was assayed for total soluble protein (Bicinchoninic Acid Kit for Protein Determination, Sigma Aldrich catalog #BCA1-KT). A portion of the clarified Thermotoga maritima MSB8 or Thermotoga neapolitana perhydrolase-containing extract was additionally heated for 20 min at 75° C., followed immediately by cooling in an ice/water bath to 5° C. The resulting mixture was centrifuged to remove precipitated protein, and the supernatant collected and assayed for total soluble protein as before.
Reactions (10 mL total volume) containing triacetin (200 mM) and cell extract supernatant (prepared as described above) were run at 25° C. and at a pH between 4.5 and 10.0, using the buffers and buffer concentrations listed in Table 5. The concentration of extract total protein (with or without heat-treatment to denature and precipitate E. coli-derived protein) was chosen to produce an ca. 50 mM decrease in triacetin concentration over 30 min (typically from 0.025 mg/mL to 0.40 mg/mL of total extract protein, dependent on the perhydrolase). A control reaction for each reaction condition was run to determine the concentration of triacetin hydrolyzed in the absence of added extract protein. Samples (100 μL) were removed at predetermined times and immediately added to 297 μL of dd H2O and 3 μL of 6N HCL. The resulting solution was mixed, then filtered using a 30,000 NMWL filter (Millipore) using a microcentrifuge for 2 min at 12,000 rpm. An aliquot of the filtrate (100 μL) was added to 150 μL of 0.417 mM N,N-diethyl meta-toluamide (external standard) in acetonitrile, and the resulting solution analyzed for triacetin by HPLC using a Supelco Discovery C8 column (25 cm×4.0 mm, 5 um; Supelco #59353-U40) and an isocratic mobile phase of 40% acetonitrile/60% distilled water at a flow rate of 1 mL/min. Triacetin was measured by UV detection at 225 nm.

[3] abbreviates: initial pH 6.5, sodium citrate 50 mM, H2O2 100 mM.
Where [4] appears, read: initial pH 6.5, sodium citrate 50 mM, H2O2 250 mM.
Where [5] appears, read: initial pH 7.2, sodium citrate 50 mM, H2O2 100 mM.
The mark [6] stands for this setting: initial pH 7.2, sodium citrate 50 mM, H2O2 250 mM.
[7] abbreviates: pH 7.0, potassium phosphate 0.15 M.
Setting [8] is: pH 7.5, potassium phosphate 0.15 M.
Where [9] appears, read: pH 8.0, potassium phosphate 0.20 M.
The mark [10] stands for this setting: pH 8.5, Tris(hydroxymethyl)aminomethane 0.20 M.
Setting [11] is: pH 9.0, Tris(hydroxymethyl)aminomethane 0.20 M.

B1: Thermotoga maritima MSB8 perhydrolase: acetyl xylan esterase with perhydrolase activity from Thermotoga maritima MSB8 (SEQ ID NO: 16), cell extract of E. coli KLP18/pSW207 (protein, listed as Thermotoga maritima)
chain: MAFFDLPLEELKKYRPERYEEKDFDEFWEETLAESEKFPLDPVFERMESHLKTVEAYDVTFSGYRGQRIKGWLLVPKLEEEKLPCVVQYIGYNGGRGFPHDWLFWPSMGYICFVMDTRGQGSGWLKGDTPDYPEGPVDPQYPGFMTRGILDPRTYYYRRVFTDAVRAVEAAASFPQVDQERIVIAGGSQGGGIALAVSALSKKAKALLCDVPFLCHFRRAVQLVDTHPYAEITNFLKTHRDKEEIVFRTLSYFDGVNFAARAKIPALFSVGLMDNICPPSTVFAAYNYYAGPKEIRIYPYNNHEGGGSFQAVEQVKFLKKLFEKG
In the case of B1, the “PAA, 1 min (ppm)” value in data set [1] (setting [3]) came out at 53 ppm; in data set [1] (setting [4]) it was 95 ppm; in data set [1] (setting [5]) it was 210 ppm; in data set [1] (setting [6]), 635 ppm. The “PAA, 5 min (ppm)” value is 279 ppm in data set [1] (setting [3]), 742 ppm in data set [1] (setting [4]), 610 ppm in data set [1] (setting [5]) and 1725 ppm in data set [1] (setting [6]). For the same molecule, the “PAA, 30 min (ppm)” value was found to be 1540 ppm in data set [1] (setting [3]), 2446 ppm in data set [1] (setting [4]), 1995 ppm in data set [1] (setting [5]) and 3565 ppm in data set [1] (setting [6]). In addition, the “specific activity (mmol triacetin/min/mg total extract protein)” value in data set [2] (pH 5.5, sodium acetate 0.15 M) is recorded as 1.4 mmol triacetin/min/mg total extract protein; in data set [2] (pH 6.0, sodium citrate 0.15 M), 4.3 mmol triacetin/min/mg total extract protein; in data set [2] (pH 6.5, sodium citrate 0.15 M), 10.3 mmol triacetin/min/mg total extract protein; in data set [2] (setting [7]), 16.0 mmol triacetin/min/mg total extract protein; in data set [2] (setting [8]), 19.8 mmol triacetin/min/mg total extract protein; in data set [2] (setting [9]) it was 28.7 mmol triacetin/min/mg total extract protein. In addition, the “specific activity (mmol triacetin/min/mg total extract protein)” value is 38.8 mmol triacetin/min/mg total extract protein in data set [2] (setting [10]); 57.1 mmol triacetin/min/mg total extract protein in data set [2] (setting [11]); 21.6 mmol triacetin/min/mg total extract protein in data set [2] (pH 9.5, glycine 0.20 M).

B2: Thermotoga neapolitana perhydrolase: acetyl xylan esterase with perhydrolase activity from Thermotoga neapolitana (SEQ ID NO: 14), cell extract of E. coli KLP18/pSW196 (protein, listed as Thermotoga neapolitana)
chain: MAFFDMPLEELKKYRPERYEEKDFDEFWRETLKESEGFPLDPVFEKVDFHLKTVETYDVTFSGYRGQRIKGWLLVPKLAEEKLPCVVQYIGYNGGRGFPHDWLFWPSMGYICFVMDTRGQGSGWMKGDTPDYPEGPVDPQYPGFMTRGILDPGTYYYRRVFVDAVRAVEAAISFPRVDSRKVVVAGGSQGGGIALAVSALSNRVKALLCDVPFLCHFRRAVQLVDTHPYVEITNFLKTHRDKEEIVFRTLSYFDGVNFAARAKVPALFSVGLMDTICPPSTVFAAYNHYAGPKEIRIYPYNNHEGGGSFQAIEQVKFLKRLFEEG
For the molecule B2, the “PAA, 1 min (ppm)” value turned out to be 221 ppm in data set [1] (setting [3]), 434 ppm in data set [1] (setting [4]), 798 ppm in data set [1] (setting [5]) and 1790 ppm in data set [1] (setting [6]). Moreover, the “PAA, 5 min (ppm)” value is reported as 607 ppm in data set [1] (setting [3]), 1260 ppm in data set [1] (setting [4]), 1748 ppm in data set [1] (setting [5]) and 2860 ppm in data set [1] (setting [6]). The “PAA, 30 min (ppm)” value in data set [1] (setting [3]) was determined as 1925 ppm; in data set [1] (setting [4]), 2016 ppm; in data set [1] (setting [5]), 2500 ppm; in data set [1] (setting [6]), 3820 ppm. Also, the “specific activity (mmol triacetin/min/mg total extract protein)” value in data set [2] (pH 5.5, sodium acetate 0.15 M) was 0 mmol triacetin/min/mg total extract protein; in data set [2] (pH 6.0, sodium citrate 0.15 M), 0.4 mmol triacetin/min/mg total extract protein; in data set [2] (pH 6.5, sodium citrate 0.15 M), 1.7 mmol triacetin/min/mg total extract protein; in data set [2] (setting [7]), 3.3 mmol triacetin/min/mg total extract protein; in data set [2] (setting [8]), 5.3 mmol triacetin/min/mg total extract protein; in data set [2] (setting [9]) it was 5.8 mmol triacetin/min/mg total extract protein. The “specific activity (mmol triacetin/min/mg total extract protein)” value in data set [2] (setting [10]) is recorded as 11.3 mmol triacetin/min/mg total extract protein; in data set [2] (setting [11]), 12.5 mmol triacetin/min/mg total extract protein; in data set [2] (pH 9.5, glycine 0.20 M), 12.0 mmol triacetin/min/mg total extract protein; in data set [2] (pH 10.0, glycine 0.20 M) it was 0 mmol triacetin/min/mg total extract protein.
